Data published in patent US20140087995A1 (published 2014).
Numbered stars: 1 amine (or outer) side, 2 acyl side, 3 side chain; on linkers, the order of the positions; unused ones are H or OH. Bridge positions count the residues as written; N and C are the ends. Side chains are listed from the residue outwards. Ends that are not written are not given here. * marks the point of attachment. C20 diacid = O=C(O)CCCCCCCCCCCCCCCCCCC(=O)*; γGlu = O=C(O)[C@H](CCC(=O)[*:2])N[*:1]

T1: rat calcitonin receptor (rat, UniProt P32214 25-516)
T1 construct: whole, on cells; Membranes of transiently transfected BHK tk'ts 13 cells; also called rCTR; rat calcitonin (a) receptor
T1 sequence (looked up): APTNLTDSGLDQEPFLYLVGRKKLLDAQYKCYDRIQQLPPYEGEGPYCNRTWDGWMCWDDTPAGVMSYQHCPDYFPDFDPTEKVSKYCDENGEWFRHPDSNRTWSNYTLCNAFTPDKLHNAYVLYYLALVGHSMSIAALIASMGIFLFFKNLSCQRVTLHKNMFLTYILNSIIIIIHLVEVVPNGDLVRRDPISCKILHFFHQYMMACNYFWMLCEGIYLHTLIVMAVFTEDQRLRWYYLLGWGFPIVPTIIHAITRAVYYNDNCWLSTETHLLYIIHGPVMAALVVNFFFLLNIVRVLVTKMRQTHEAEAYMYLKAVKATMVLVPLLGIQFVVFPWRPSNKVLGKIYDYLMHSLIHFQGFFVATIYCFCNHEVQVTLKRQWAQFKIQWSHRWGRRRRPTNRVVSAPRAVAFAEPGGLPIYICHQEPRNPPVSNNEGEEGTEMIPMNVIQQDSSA

T2: rat amylin receptor (rat calcitonin receptor + rat RAMP 3) (rat, UniProt P32214 25-516; Q9JJ73 23-147)
T2 construct: whole, on cells; Membranes of transiently transfected BHK tk'ts 13 cells; also called rAmylin-R; rat amylin 3(a) receptor
T2 sequence (looked up) 1: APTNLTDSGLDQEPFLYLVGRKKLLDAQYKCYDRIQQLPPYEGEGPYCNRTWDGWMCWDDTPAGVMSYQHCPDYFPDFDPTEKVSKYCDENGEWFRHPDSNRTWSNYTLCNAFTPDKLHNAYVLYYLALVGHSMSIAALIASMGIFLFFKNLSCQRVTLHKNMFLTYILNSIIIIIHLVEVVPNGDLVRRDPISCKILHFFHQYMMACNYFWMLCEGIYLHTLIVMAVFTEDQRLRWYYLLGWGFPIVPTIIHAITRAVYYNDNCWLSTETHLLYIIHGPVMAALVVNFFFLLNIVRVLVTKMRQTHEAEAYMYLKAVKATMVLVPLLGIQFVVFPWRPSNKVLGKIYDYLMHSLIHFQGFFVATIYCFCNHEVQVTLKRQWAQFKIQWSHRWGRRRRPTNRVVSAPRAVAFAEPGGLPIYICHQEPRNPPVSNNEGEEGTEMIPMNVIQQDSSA
T2 sequence (looked up) 2: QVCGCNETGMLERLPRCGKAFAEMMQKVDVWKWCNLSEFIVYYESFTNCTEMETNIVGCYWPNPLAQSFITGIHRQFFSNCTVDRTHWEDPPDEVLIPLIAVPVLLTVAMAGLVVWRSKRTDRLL

T3: human calcitonin receptor (human, UniProt P30988 25-474)
T3 construct: whole, on cells; Membranes of stably transfected cells; also called hCTR; hCT
T3 sequence (looked up): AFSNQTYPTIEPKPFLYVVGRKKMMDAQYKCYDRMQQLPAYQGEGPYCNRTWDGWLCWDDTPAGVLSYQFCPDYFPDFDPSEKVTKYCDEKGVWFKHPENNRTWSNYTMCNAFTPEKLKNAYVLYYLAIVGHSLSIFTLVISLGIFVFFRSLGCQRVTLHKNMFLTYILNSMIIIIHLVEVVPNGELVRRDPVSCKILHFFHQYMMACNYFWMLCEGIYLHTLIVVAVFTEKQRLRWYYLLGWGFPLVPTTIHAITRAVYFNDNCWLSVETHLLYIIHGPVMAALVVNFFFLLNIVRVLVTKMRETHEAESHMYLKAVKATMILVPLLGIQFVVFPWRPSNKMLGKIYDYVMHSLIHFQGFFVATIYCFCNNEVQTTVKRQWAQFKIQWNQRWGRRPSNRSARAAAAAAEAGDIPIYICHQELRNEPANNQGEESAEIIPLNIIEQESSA

B1: N^ε1-[(4S)-4-carboxy-4-[[(4S)-4-carboxy-4-(19-carboxynonadecanoylamino)butanoyl]amino]butanoyl]-[Glu14,Arg17,Pro21,Pro27,His34,Glu35]-h-amylin (peptide)
peptide: K([γGlu-γGlu-C20 diacid])CNTATCATQRLAEFLRHSSPNFGAIPSSTNVGHETY-NH2
modifications: disulfide 2-7; N-terminus assumed
SMILES: CC[C@H](C)[C@H](NC(=O)[C@H](C)NC(=O)CNC(=O)[C@H](Cc1ccccc1)NC(=O)[C@H](CC(N)=O)NC(=O)[C@@H]1CCCN1C(=O)[C@H](CO)NC(=O)[C@H](CO)NC(=O)[C@H](Cc1c[nH]cn1)NC(=O)[C@H](CCCNC(=N)N)NC(=O)[C@H](CC(C)C)NC(=O)[C@H](Cc1ccccc1)NC(=O)[C@H](CCC(=O)O)NC(=O)[C@H](C)NC(=O)[C@H](CC(C)C)NC(=O)[C@H](CCCNC(=N)N)NC(=O)[C@H](CCC(N)=O)NC(=O)[C@@H](NC(=O)[C@H](C)NC(=O)[C@@H]1CSSC[C@H](NC(=O)[C@@H](N)CCCCNC(=O)CC[C@H](NC(=O)CC[C@H](NC(=O)CCCCCCCCCCCCCCCCCCC(=O)O)C(=O)O)C(=O)O)C(=O)N[C@@H](CC(N)=O)C(=O)N[C@@H]([C@@H](C)O)C(=O)N[C@@H](C)C(=O)N[C@@H]([C@@H](C)O)C(=O)N1)[C@@H](C)O)C(=O)N1CCC[C@H]1C(=O)N[C@@H](CO)C(=O)N[C@@H](CO)C(=O)N[C@H](C(=O)N[C@@H](CC(N)=O)C(=O)N[C@H](C(=O)NCC(=O)N[C@@H](Cc1c[nH]cn1)C(=O)N[C@@H](CCC(=O)O)C(=O)N[C@H](C(=O)N[C@@H](Cc1ccc(O)cc1)C(N)=O)[C@@H](C)O)C(C)C)[C@@H](C)O
notes: Synthetic acylated analogue of human amylin
B2: N^ε1-[(4S)-4-carboxy-4-[[(4S)-4-carboxy-4-(19-carboxynonadecanoylamino)butanoyl]amino]butanoyl]-[Glu14,Arg17,Pro21,Pro27,Pro34,Phe37]-h-amylin (peptide)
peptide: K([γGlu-γGlu-C20 diacid])CNTATCATQRLAEFLRHSSPNFGAIPSSTNVGPNTF-NH2
modifications: disulfide 2-7; N-terminus assumed
SMILES: CC[C@H](C)[C@H](NC(=O)[C@H](C)NC(=O)CNC(=O)[C@H](Cc1ccccc1)NC(=O)[C@H](CC(N)=O)NC(=O)[C@@H]1CCCN1C(=O)[C@H](CO)NC(=O)[C@H](CO)NC(=O)[C@H](Cc1c[nH]cn1)NC(=O)[C@H](CCCNC(=N)N)NC(=O)[C@H](CC(C)C)NC(=O)[C@H](Cc1ccccc1)NC(=O)[C@H](CCC(=O)O)NC(=O)[C@H](C)NC(=O)[C@H](CC(C)C)NC(=O)[C@H](CCCNC(=N)N)NC(=O)[C@H](CCC(N)=O)NC(=O)[C@@H](NC(=O)[C@H](C)NC(=O)[C@@H]1CSSC[C@H](NC(=O)[C@@H](N)CCCCNC(=O)CC[C@H](NC(=O)CC[C@H](NC(=O)CCCCCCCCCCCCCCCCCCC(=O)O)C(=O)O)C(=O)O)C(=O)N[C@@H](CC(N)=O)C(=O)N[C@@H]([C@@H](C)O)C(=O)N[C@@H](C)C(=O)N[C@@H]([C@@H](C)O)C(=O)N1)[C@@H](C)O)C(=O)N1CCC[C@H]1C(=O)N[C@@H](CO)C(=O)N[C@@H](CO)C(=O)N[C@H](C(=O)N[C@@H](CC(N)=O)C(=O)N[C@H](C(=O)NCC(=O)N1CCC[C@H]1C(=O)N[C@@H](CC(N)=O)C(=O)N[C@H](C(=O)N[C@@H](Cc1ccccc1)C(N)=O)[C@@H](C)O)C(C)C)[C@@H](C)O
notes: as for B1
B3: N^ε1-[(4S)-4-carboxy-4-[[(4S)-4-carboxy-4-(19-carboxynonadecanoylamino)butanoyl]amino]butanoyl]-[Glu14,Arg17,Pro21,Pro27,Pro34,Glu35,Pro37]-h-amylin (peptide)
peptide: K([γGlu-γGlu-C20 diacid])CNTATCATQRLAEFLRHSSPNFGAIPSSTNVGPETP-NH2
modifications: disulfide 2-7; N-terminus assumed
SMILES: CC[C@H](C)[C@H](NC(=O)[C@H](C)NC(=O)CNC(=O)[C@H](Cc1ccccc1)NC(=O)[C@H](CC(N)=O)NC(=O)[C@@H]1CCCN1C(=O)[C@H](CO)NC(=O)[C@H](CO)NC(=O)[C@H](Cc1c[nH]cn1)NC(=O)[C@H](CCCNC(=N)N)NC(=O)[C@H](CC(C)C)NC(=O)[C@H](Cc1ccccc1)NC(=O)[C@H](CCC(=O)O)NC(=O)[C@H](C)NC(=O)[C@H](CC(C)C)NC(=O)[C@H](CCCNC(=N)N)NC(=O)[C@H](CCC(N)=O)NC(=O)[C@@H](NC(=O)[C@H](C)NC(=O)[C@@H]1CSSC[C@H](NC(=O)[C@@H](N)CCCCNC(=O)CC[C@H](NC(=O)CC[C@H](NC(=O)CCCCCCCCCCCCCCCCCCC(=O)O)C(=O)O)C(=O)O)C(=O)N[C@@H](CC(N)=O)C(=O)N[C@@H]([C@@H](C)O)C(=O)N[C@@H](C)C(=O)N[C@@H]([C@@H](C)O)C(=O)N1)[C@@H](C)O)C(=O)N1CCC[C@H]1C(=O)N[C@@H](CO)C(=O)N[C@@H](CO)C(=O)N[C@H](C(=O)N[C@@H](CC(N)=O)C(=O)N[C@H](C(=O)NCC(=O)N1CCC[C@H]1C(=O)N[C@@H](CCC(=O)O)C(=O)N[C@H](C(=O)N1CCC[C@H]1C(N)=O)[C@@H](C)O)C(C)C)[C@@H](C)O
notes: as for B1
B4: N^ε1-[(4S)-4-carboxy-4-[[(4S)-4-carboxy-4-(19-carboxynonadecanoylamino)butanoyl]amino]butanoyl]-[Glu14,Arg17,Pro21,Pro27,Pro34,His35]-h-amylin (peptide)
peptide: K([γGlu-γGlu-C20 diacid])CNTATCATQRLAEFLRHSSPNFGAIPSSTNVGPHTY-NH2
modifications: disulfide 2-7 (inferred)
notes: as for B1
B5: N^ε1-[(4S)-4-carboxy-4-[[(4S)-4-carboxy-4-(19-carboxynonadecanoylamino)butanoyl]amino]butanoyl]-[Glu14,Arg17,Pro21,Pro27,Pro34,Arg35]-h-amylin (peptide)
peptide: K([γGlu-γGlu-C20 diacid])CNTATCATQRLAEFLRHSSPNFGAIPSSTNVGPRTY-NH2
modifications: disulfide 2-7; N-terminus assumed
SMILES: CC[C@H](C)[C@H](NC(=O)[C@H](C)NC(=O)CNC(=O)[C@H](Cc1ccccc1)NC(=O)[C@H](CC(N)=O)NC(=O)[C@@H]1CCCN1C(=O)[C@H](CO)NC(=O)[C@H](CO)NC(=O)[C@H](Cc1c[nH]cn1)NC(=O)[C@H](CCCNC(=N)N)NC(=O)[C@H](CC(C)C)NC(=O)[C@H](Cc1ccccc1)NC(=O)[C@H](CCC(=O)O)NC(=O)[C@H](C)NC(=O)[C@H](CC(C)C)NC(=O)[C@H](CCCNC(=N)N)NC(=O)[C@H](CCC(N)=O)NC(=O)[C@@H](NC(=O)[C@H](C)NC(=O)[C@@H]1CSSC[C@H](NC(=O)[C@@H](N)CCCCNC(=O)CC[C@H](NC(=O)CC[C@H](NC(=O)CCCCCCCCCCCCCCCCCCC(=O)O)C(=O)O)C(=O)O)C(=O)N[C@@H](CC(N)=O)C(=O)N[C@@H]([C@@H](C)O)C(=O)N[C@@H](C)C(=O)N[C@@H]([C@@H](C)O)C(=O)N1)[C@@H](C)O)C(=O)N1CCC[C@H]1C(=O)N[C@@H](CO)C(=O)N[C@@H](CO)C(=O)N[C@H](C(=O)N[C@@H](CC(N)=O)C(=O)N[C@H](C(=O)NCC(=O)N1CCC[C@H]1C(=O)N[C@@H](CCCNC(=N)N)C(=O)N[C@H](C(=O)N[C@@H](Cc1ccc(O)cc1)C(N)=O)[C@@H](C)O)C(C)C)[C@@H](C)O
notes: Synthetic acylated analogue of human amylin; also called compound 110
B6: N^ε1-[(4S)-4-carboxy-4-[[(4S)-4-carboxy-4-(19-carboxynonadecanoylamino)butanoyl]amino]butanoyl]-[Glu14,Arg17,Pro21,Pro31,Pro34,Glu35]-h-amylin (peptide)
peptide: K([γGlu-γGlu-C20 diacid])CNTATCATQRLAEFLRHSSPNFGAILSSTPVGPETY-NH2
modifications: disulfide 2-7
notes: as for B1

What was measured:
rat calcitonin receptor [1] = molecular target: T1, rat calcitonin receptor; experiment: SPA competition with 125I-calcitonin on membranes of BHK tk'ts 13 cells with rat calcitonin receptor (Assay VIII)
[2] = molecular target: T2, rat amylin receptor (rat calcitonin …); experiment: SPA competition with 125I-rat amylin on membranes of BHK tk'ts 13 cells with rat calcitonin receptor + rat RAMP3 (Assay VI)
rat calcitonin receptor [3] = molecular target: T1, rat calcitonin receptor; experiment: ratio of IC50 on rat calcitonin receptor to IC50 on rat amylin receptor (reference m40)
[4] = molecular target: T3, human calcitonin receptor; experiment: ratio of IC50 on human calcitonin receptor to IC50 on human amylin receptor (reference m42), SPA competition
How it was run: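 Competition binding by SPA uses membrane preparations (35 ng/μL final) in pH 7.4 Hepes buffer with 1 mM CaCl2 and 5 mM MgCl₂. Incubation lasts 120 min at 25° C, and IC₅₀ comes from one-site fitting.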

Binder | IC50 (rat calcitonin receptor [1]) | IC50 [2] | Ratio rCT/rAmylin binding (rat calcitonin receptor [3]) | Ratio hCT/hAmylin binding [4]
B1 | 498 nM | 3.14 nM | 159 | 29.1
B2 | 23.4 nM | 0.205 nM | 114 | 18
B3 | 1.61 nM | 0.152 nM | 10.6 | 0.4
B4 | 21 nM | 0.288 nM | 73 | 27.3
B5 | 38.3 nM | 0.339 nM | 113 | 53.6
B6 | 33.5 nM | 0.449 nM | 74.7 | 22.6
